Assays:
Experiment in all cases: cell-based or functional assay
[1] = target: HIV-1 Env of pseudovirus 1006_11_C3_1601 (HIV-1)
[2] = target: HIV-1 Env of pseudovirus 1012_11_TC21_3257 (HIV-1)
[3] = target: HIV-1 Env of pseudovirus 1056_10_TA11_1826 (HIV-1)
[4] = target: HIV-1 Env of pseudovirus 191955_A11 (HIV-1)
[5] = target: HIV-1 Env of pseudovirus 235-47 (HIV-1)
[6] = target: HIV-1 Env of pseudovirus 249M B10 (HIV-1)
[7] = target: HIV-1 Env of pseudovirus 3103.v3.c10 (HIV-1)
[8] = target: HIV-1 Env of pseudovirus 62357_14_D3_4589 (HIV-1)
[9] = target: HIV-1 Env of pseudovirus 6244_13_B5_4576 (HIV-1)
[10] = target: HIV-1 Env of pseudovirus 6540.v4.c1 (HIV-1)
[11] = target: HIV-1 Env of pseudovirus 6545.v4.c1 (HIV-1)
[12] = target: HIV-1 Env of pseudovirus BJOX009000.02.4 (HIV-1)
[13] = target: HIV-1 Env of pseudovirus C1080.c03 (HIV-1)
[14] = target: HIV-1 Env of pseudovirus C3347.c11 (HIV-1)
[15] = target: HIV-1 Env of pseudovirus CAP210.2.00.E8 (HIV-1)
[16] = target: HIV-1 Env of pseudovirus CAP45.2.00.G3 (HIV-1)
[17] = target: HIV-1 Env of pseudovirus CNE21 (HIV-1)
[18] = target: HIV-1 Env of pseudovirus CNE30 (HIV-1)
[19] = target: HIV-1 Env of pseudovirus CNE52 (HIV-1)
[20] = target: HIV-1 Env of pseudovirus CNE53 (HIV-1)
[21] = target: HIV-1 Env of pseudovirus Ce0393_C3 (HIV-1)
[22] = target: HIV-1 Env of pseudovirus Ce1176_A3 (HIV-1)
[23] = target: HIV-1 Env of pseudovirus Ce704809221_1B3 (HIV-1)
[24] = target: HIV-1 Env of pseudovirus HIV-0013095-2.11 (HIV-1)
[25] = target: HIV-1 Env of pseudovirus R1166.c01 (HIV-1)
[26] = target: HIV-1 Env of pseudovirus R2184.c04 (HIV-1)
[27] = target: HIV-1 Env of pseudovirus RHPA4259.7 (HIV-1)
[28] = target: HIV-1 Env of pseudovirus SC05_8C11_2344 (HIV-1)
[29] = target: HIV-1 Env of pseudovirus T251-18 (HIV-1)
[30] = target: HIV-1 Env of pseudovirus T255-34 (HIV-1)
[31] = target: HIV-1 Env of pseudovirus TRJO4551.58 (HIV-1)
[32] = target: HIV-1 Env of pseudovirus TRO.11 (HIV-1)
[33] = target: HIV-1 Env of pseudovirus X1632_S2_B10 (HIV-1)
[34] = target: HIV-1 Env of pseudovirus X2131_C1_B5 (HIV-1)
[35] = target: HIV-1 Env of pseudovirus ZM135M.PL10a (HIV-1)
[36] = target: HIV-1 Env of pseudovirus ZM214M.PL15 (HIV-1)
[37] = target: HIV-1 Env of pseudovirus ZM233M.PB6 (HIV-1)

NIH 45-46 (antibody) showed a neutralization IC50 [1] of 0.05 µg/mL, a neutralization IC80 [1] of 0.31 µg/mL and a neutralization IC50 [2] of 0.01 µg/mL. The neutralization IC80 [2] was 0.04 µg/mL, the neutralization IC50 [3] was 0.12 µg/mL and the neutralization IC80 [3] was 0.59 µg/mL. For the same substance, the neutralization IC50 [4] was 0.11 µg/mL, the neutralization IC80 [4] was 0.43 µg/mL and the IC50, titer in TZM.bl cells [5] was 0.3 µg/mL. For the same substance, the IC80, titer in TZM.bl cells [5] was 1.49 µg/mL, the neutralization IC50 [6] was 0.04 µg/mL and the neutralization IC80 [6] was 0.17 µg/mL. For the same substance, the IC50, titer in TZM.bl cells [7] was 1.66 µg/mL, the IC80, titer in TZM.bl cells [7] was 6.57 µg/mL and the neutralization IC50 [8] was 0.05 µg/mL. The neutralization IC80 [8] was 0.22 µg/mL, the neutralization IC50 [9] was 0.07 µg/mL and the neutralization IC80 [9] was 0.26 µg/mL. It also gave an IC50, titer in TZM.bl cells [10] greater than 50 µg/mL, an IC80, titer in TZM.bl cells [10] greater than 50 µg/mL and an IC50, titer in TZM.bl cells [11] greater than 50 µg/mL. It also gave an IC80, titer in TZM.bl cells [11] greater than 50 µg/mL, an IC50, titer in TZM.bl cells [12] of 0.26 µg/mL and an IC80, titer in TZM.bl cells [12] of 1.16 µg/mL. It also gave an IC50, titer in TZM.bl cells [13] of 1.79 µg/mL, an IC80, titer in TZM.bl cells [13] of 18 µg/mL and an IC50, titer in TZM.bl cells [14] of 0.03 µg/mL. It also gave an IC80, titer in TZM.bl cells [14] of 0.18 µg/mL, a neutralization IC50 [15] greater than 50 µg/mL and a neutralization IC80 [15] greater than 50 µg/mL. It also gave a neutralization IC50 [16] greater than 50 µg/mL, a neutralization IC80 [16] greater than 50 µg/mL and a neutralization IC50 [17] of 7.53 µg/mL. The neutralization IC80 [17] was greater than 50 µg/mL, the neutralization IC50 [18] was 0.34 µg/mL and the neutralization IC80 [18] was 1.48 µg/mL. The neutralization IC50 [19] was 0.03 µg/mL, the neutralization IC80 [19] was 0.12 µg/mL and the neutralization IC50 [20] was 0.01 µg/mL. For the same substance, the neutralization IC80 [20] was 0.04 µg/mL, the neutralization IC50 [21] was 0.32 µg/mL and the neutralization IC80 [21] was 1.07 µg/mL. It also gave a neutralization IC50 [22] of 1.29 µg/mL, a neutralization IC80 [22] of 5.55 µg/mL and a neutralization IC50 [23] of 0.15 µg/mL. It also gave a neutralization IC80 [23] of 0.88 µg/mL, a neutralization IC50 [24] of 0.01 µg/mL and a neutralization IC80 [24] of 0.03 µg/mL. The IC50, titer in TZM.bl cells [25] was 1.68 µg/mL, the IC80, titer in TZM.bl cells [25] was 1.68 µg/mL and the IC50, titer in TZM.bl cells [26] was 0.03 µg/mL. For the same substance, the IC80, titer in TZM.bl cells [26] was 0.12 µg/mL, the neutralization IC50 [27] was less than 0.05 µg/mL and the neutralization IC80 [27] was less than 0.05 µg/mL. The neutralization IC50 [28] was 0.14 µg/mL, the neutralization IC80 [28] was 0.38 µg/mL and the IC50, titer in TZM.bl cells [29] was 5.26 µg/mL. The IC80, titer in TZM.bl cells [29] was 5.26 µg/mL, the IC50, titer in TZM.bl cells [30] was 0.23 µg/mL and the IC80, titer in TZM.bl cells [30] was 2.38 µg/mL. The neutralization IC50 [31] was 0.01 µg/mL, the neutralization IC80 [31] was 0.05 µg/mL and the neutralization IC50 [32] was 1.9 µg/mL. For the same substance, the neutralization IC80 [32] was 9.56 µg/mL, the IC50, titer in TZM.bl cells [33] was 0.07 µg/mL and the IC80, titer in TZM.bl cells [33] was greater than 50 µg/mL. It also gave an IC50, titer in TZM.bl cells [34] of 0.2 µg/mL, an IC80, titer in TZM.bl cells [34] of 0.9 µg/mL and a neutralization IC50 [35] of 0.36 µg/mL. The neutralization IC80 [35] was 3.11 µg/mL, the neutralization IC50 [36] was 0.05 µg/mL and the neutralization IC80 [36] was 0.39 µg/mL. The neutralization IC50 [37] was 1.86 µg/mL and the neutralization IC80 [37] was 16.5 µg/mL.
Substance PGDM1400 (antibody) has an IC50 [1] of 4.32 µg/mL, an IC80 [1] greater than 50 µg/mL and an IC50 [2] of 0.049 µg/mL. The IC80 [2] was 0.23 µg/mL, the IC50 [3] was 3.26 µg/mL and the IC80 [3] was 11.8 µg/mL. It also gave an IC50 [4] of 0.001 µg/mL, an IC80 [4] of 0.021 µg/mL and an IC50, titer in TZM.bl cells [5] of 0.005 µg/mL. The IC80, titer in TZM.bl cells [5] was 0.032 µg/mL, the IC50 [6] was 0.039 µg/mL and the IC80 [6] was 0.786 µg/mL. For the same substance, the IC50, titer in TZM.bl cells [7] was 0.671 µg/mL, the IC80, titer in TZM.bl cells [7] was 2 µg/mL and the IC50 [8] was greater than 50 µg/mL. The IC80 [8] was greater than 50 µg/mL, the IC50 [9] was greater than 50 µg/mL and the IC80 [9] was greater than 50 µg/mL. For the same substance, the IC50, titer in TZM.bl cells [10] was 0.004 µg/mL, the IC80, titer in TZM.bl cells [10] was 0.028 µg/mL and the IC50, titer in TZM.bl cells [11] was 0.003 µg/mL. For the same substance, the IC80, titer in TZM.bl cells [11] was 0.039 µg/mL, the IC50, titer in TZM.bl cells [12] was 0.443 µg/mL and the IC80, titer in TZM.bl cells [12] was 1.29 µg/mL. It also gave an IC50, titer in TZM.bl cells [13] of less than 0.001 µg/mL, an IC80, titer in TZM.bl cells [13] of less than 0.001 µg/mL and an IC50, titer in TZM.bl cells [14] of 0.011 µg/mL. It also gave an IC80, titer in TZM.bl cells [14] of 0.051 µg/mL, an IC50 [15] of 0.034 µg/mL and an IC80 [15] of 0.514 µg/mL. The IC50 [16] was less than 0.001 µg/mL, the IC80 [16] was 0.002 µg/mL and the IC50 [17] was less than 0.001 µg/mL. The IC80 [17] was 0.002 µg/mL, the IC50 [18] was greater than 50 µg/mL and the IC80 [18] was greater than 50 µg/mL. The IC50 [19] was 1.15 µg/mL, the IC80 [19] was 9.97 µg/mL and the IC50 [20] was 0.077 µg/mL. The IC80 [20] was 0.246 µg/mL, the IC50 [21] was 0.015 µg/mL and the IC80 [21] was 0.044 µg/mL. The IC50 [22] was 0.587 µg/mL, the IC80 [22] was 11.6 µg/mL and the IC50 [23] was 0.28 µg/mL. It also gave an IC80 [23] of 1.1 µg/mL, an IC50 [24] of 0.003 µg/mL and an IC80 [24] of 0.012 µg/mL. The IC50, titer in TZM.bl cells [25] was 1.43 µg/mL, the IC80, titer in TZM.bl cells [25] was 6.92 µg/mL and the IC50, titer in TZM.bl cells [26] was 0.003 µg/mL. It also gave an IC80, titer in TZM.bl cells [26] of 0.012 µg/mL, an IC50 [27] of 0.447 µg/mL and an IC80 [27] of 2.19 µg/mL. It also gave an IC50 [28] of 1.26 µg/mL, an IC80 [28] of 3.59 µg/mL and an IC50, titer in TZM.bl cells [29] of 8.62 µg/mL. For the same substance, the IC80, titer in TZM.bl cells [29] was 43.1 µg/mL, the IC50, titer in TZM.bl cells [30] was 0.654 µg/mL and the IC80, titer in TZM.bl cells [30] was greater than 50 µg/mL. For the same substance, the IC50 [31] was greater than 50 µg/mL, the IC80 [31] was greater than 50 µg/mL and the IC50 [32] was 0.283 µg/mL. The IC80 [32] was 1.38 µg/mL, the IC50, titer in TZM.bl cells [33] was 0.055 µg/mL and the IC80, titer in TZM.bl cells [33] was 1.45 µg/mL. It also gave an IC50, titer in TZM.bl cells [34] of 0.128 µg/mL, an IC80, titer in TZM.bl cells [34] of 0.568 µg/mL and an IC50 [35] greater than 50 µg/mL. The IC80 [35] was greater than 50 µg/mL, the IC50 [36] was greater than 50 µg/mL and the IC80 [36] was greater than 50 µg/mL. For the same substance, the IC50 [37] was less than 0.001 µg/mL and the IC80 [37] was 0.001 µg/mL.

— patent US20230002480A1
